Assay results published in US20220089752A1 (University of California, published 2022).

How the values were obtained:
[1] = molecular target: activated leukocyte cell adhesion molecule (ALCAM) on human cell lines (human) (UniProt Q13740); test: cell-based or functional assay
[2] = molecular target: ephrin type-A receptor 2 (EphA2) on cells (human) (UniProt P29317); test: cell-based or functional assay
[3] = molecular target: T1, activated leukocyte cell adhesion molecule (ALCAM) on human cell lines (human, UniProt Q13740 28-583); test: FACS titration of the IgG1 on live DU145 cells, curve fit (apparent KD)
T1 construct: whole, on cells
T1 sequence (looked up): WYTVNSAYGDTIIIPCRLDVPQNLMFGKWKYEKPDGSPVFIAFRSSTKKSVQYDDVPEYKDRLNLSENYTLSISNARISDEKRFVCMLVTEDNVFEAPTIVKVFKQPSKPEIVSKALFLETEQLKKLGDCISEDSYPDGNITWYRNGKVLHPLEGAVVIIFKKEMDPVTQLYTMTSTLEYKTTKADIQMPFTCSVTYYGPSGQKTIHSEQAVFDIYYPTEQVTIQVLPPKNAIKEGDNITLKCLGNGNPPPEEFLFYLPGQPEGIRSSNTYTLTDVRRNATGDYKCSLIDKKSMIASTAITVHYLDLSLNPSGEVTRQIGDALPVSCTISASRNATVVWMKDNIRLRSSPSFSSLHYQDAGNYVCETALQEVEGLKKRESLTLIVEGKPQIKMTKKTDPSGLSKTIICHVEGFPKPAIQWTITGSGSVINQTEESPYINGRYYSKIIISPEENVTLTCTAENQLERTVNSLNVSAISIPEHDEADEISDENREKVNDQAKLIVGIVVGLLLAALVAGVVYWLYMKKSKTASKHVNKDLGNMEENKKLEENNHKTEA
Description: (§1) FIGS. 6A-6D graphically illustrate the selection and characterization of anti-ALCAM scFvs from phage display library. FIG. 6A: Enrichment of ALCAM-binding phage through three rounds of selection. Recombinant Fc-fusion of ALCAM-V domain was immobilized on magnetic beads and utilized for scFv phage display library selection. Enrichment was calculated by dividing phage output titer by input phage titer (y-axis on the left). Binding activity of polyclonal phages amplified from each round output was described as folds against the binding of the unselected phage library (y-axis on the right). FIG. 6B: After three rounds of selection, FACS was performed to screen out monoclonal phage binding to the ALCAM^high DU145 cell line. FIG. 6C: Apparent KD of 3F1 IgG on live ALCAM-expressing cells. DU145 cells were incubated with varying concentrations of 3F1 IgG at 4° C. overnight and analyzed by FACS using Alexa® 647-conjugated anti-human IgG. KD value was estimated by curve fitting using GraphPad Prism (GraphPad Software). FIG. 6D: Confocal microscopy study of cellular localization of anti-ALCAM 3F1 IgG. Tumor cell lines were seeded in chamber-well slide and incubated with 3F1 IgG at 37° C. for 2 hours. Antibodies were stained with Alexa® 647-conjugated anti-human antibody (red). […] ALCAM expression measured using 3F1 IgG was shown below microscopic images (lower panel). […]

[4] = molecular target: T1, activated leukocyte cell adhesion …; test: FACS on live DU145 cells, 3F1 IgG at 4 C overnight, Alexa 647 anti-human IgG
Description: as §1

[5] = molecular target: T2, mouse recombinant EphA2-Fc fusion protein (mouse, UniProt Q03145 26-535, limits assumed); test: flow cytometry of yeast-displayed scFv with mouse recombinant EphA2-Fc, curve fit of normalized MFI (apparent KD)
T2 construct: also called mouse EphA2; not shown: Fc part
T2 sequence (Q03145 26-535 limits assumed): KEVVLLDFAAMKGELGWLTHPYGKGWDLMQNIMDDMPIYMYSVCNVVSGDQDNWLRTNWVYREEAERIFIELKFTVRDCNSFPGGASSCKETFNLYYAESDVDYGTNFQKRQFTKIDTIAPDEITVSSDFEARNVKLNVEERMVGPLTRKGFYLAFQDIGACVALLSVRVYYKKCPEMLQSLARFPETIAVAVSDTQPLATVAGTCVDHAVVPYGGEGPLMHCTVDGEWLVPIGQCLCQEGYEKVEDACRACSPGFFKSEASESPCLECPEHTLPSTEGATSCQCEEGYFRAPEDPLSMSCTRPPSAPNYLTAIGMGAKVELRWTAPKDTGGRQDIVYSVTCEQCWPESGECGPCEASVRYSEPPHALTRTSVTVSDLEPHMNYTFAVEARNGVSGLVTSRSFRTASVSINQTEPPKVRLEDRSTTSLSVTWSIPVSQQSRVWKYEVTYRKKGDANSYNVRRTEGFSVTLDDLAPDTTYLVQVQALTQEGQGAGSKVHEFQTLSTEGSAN
Description: (§2) In this experiment, RYRgerm is the germline version of RYR. The remaining samples were RYRgerm derivatives with high binding affinity. Apparent KD values were estimated by curve-fitting of normalized MFI values. FIG. 10B: Apparent KD measurement of four new EphA2 scFvs binding affinity to mouse recombinant EphA2-Fc fusion protein. Apparent KD values were estimated by curve-fitting of normalized MFI values.
(§3) This Example describes experiments performed to identify new versions of EphA2 binding scFv antibodies with improved binding affinity. The original EphA2 binding scFv RYR has been described previously in PCT/US2015/039741, in which EphA2 binding scFv RYR was named HCA-F1 and a germline version of RYR was named RYRgerm. To identify new versions of EphA2 binding scFv antibodies improved binding affinity for EphA2, yeast display mutagenesis libraries based on RYRgerm were generated and selected by FACS for higher affinity binders. Four new EphA2 scFvs with high binding affinity for EphA2 were identified and named […], RYRgerm_102919_15, RYRgerm_102919_22, and RYRgerm_102919_33, respectively. The amino acid sequences of VH and VL regions as well as the CDRs for these newly identified EphA2 scFvs are presented in Tables 4-5 and the Sequence Listing. In these eperiments, both human and mouse recombinant EphA2 proteins were used in selection to maintain cross-species binding. Apparent affinity was measured by flow cytometry for binding to both human and mouse EphA2.

[6] = molecular target: T3, recombinant human EphA2 (human, UniProt P29317 25-534); test: flow cytometry of yeast-displayed scFv with human recombinant EphA2, curve fit of normalized MFI (apparent KD)
T3 construct: also called human recombinant EphA2 protein
T3 sequence (P29317 25-534 limits assumed): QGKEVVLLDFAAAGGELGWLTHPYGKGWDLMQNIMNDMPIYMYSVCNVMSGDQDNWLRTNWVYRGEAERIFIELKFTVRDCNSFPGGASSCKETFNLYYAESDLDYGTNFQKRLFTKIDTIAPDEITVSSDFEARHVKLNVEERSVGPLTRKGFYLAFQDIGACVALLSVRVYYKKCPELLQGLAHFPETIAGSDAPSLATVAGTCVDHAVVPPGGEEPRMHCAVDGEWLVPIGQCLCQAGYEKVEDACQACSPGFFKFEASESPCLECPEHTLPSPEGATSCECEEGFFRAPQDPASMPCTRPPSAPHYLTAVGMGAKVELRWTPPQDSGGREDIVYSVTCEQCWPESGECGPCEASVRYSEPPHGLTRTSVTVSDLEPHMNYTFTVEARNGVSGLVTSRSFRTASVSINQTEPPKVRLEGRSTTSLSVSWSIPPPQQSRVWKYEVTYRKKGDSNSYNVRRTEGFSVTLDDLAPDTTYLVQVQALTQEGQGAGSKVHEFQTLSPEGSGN
Description: as §2, with “FIGS. 10A-10B graphically illustrate the selection and characterization of anti-EphA2 scFvs from yeast display mutagenesis libraries. FIG. 10A: Apparent KD measurement of four new EphA2 scFvs binding affinity to human recombinant EphA2 protein. In” for “In”
as §3

[7] = molecular target: T3, recombinant human EphA2; test: flow cytometry of yeast-displayed scFv with recombinant human EphA2 at 0-100 nM
Description: as §2
as §3, with “In these eperiments, both human and mouse recombinant EphA2 proteins were used in selection to maintain cross-species binding.” left out

[8] = molecular target: T3, recombinant human EphA2; test: BLI (Probe Life Gator), IgG1 on anti-human Fc probes, 100 nM recombinant human EphA2, 25 C
[9] = molecular target: T4, ephrin type-A receptor 2 (EphA2) on cells (human, UniProt P29317 24-976); test: flow cytometry on DU145 cells, 1 h at 25 C, 40 pM to 125 nM, MFI curve fit (apparent KD)
T4 construct: whole, on cells
T4 sequence (P29317 24-976): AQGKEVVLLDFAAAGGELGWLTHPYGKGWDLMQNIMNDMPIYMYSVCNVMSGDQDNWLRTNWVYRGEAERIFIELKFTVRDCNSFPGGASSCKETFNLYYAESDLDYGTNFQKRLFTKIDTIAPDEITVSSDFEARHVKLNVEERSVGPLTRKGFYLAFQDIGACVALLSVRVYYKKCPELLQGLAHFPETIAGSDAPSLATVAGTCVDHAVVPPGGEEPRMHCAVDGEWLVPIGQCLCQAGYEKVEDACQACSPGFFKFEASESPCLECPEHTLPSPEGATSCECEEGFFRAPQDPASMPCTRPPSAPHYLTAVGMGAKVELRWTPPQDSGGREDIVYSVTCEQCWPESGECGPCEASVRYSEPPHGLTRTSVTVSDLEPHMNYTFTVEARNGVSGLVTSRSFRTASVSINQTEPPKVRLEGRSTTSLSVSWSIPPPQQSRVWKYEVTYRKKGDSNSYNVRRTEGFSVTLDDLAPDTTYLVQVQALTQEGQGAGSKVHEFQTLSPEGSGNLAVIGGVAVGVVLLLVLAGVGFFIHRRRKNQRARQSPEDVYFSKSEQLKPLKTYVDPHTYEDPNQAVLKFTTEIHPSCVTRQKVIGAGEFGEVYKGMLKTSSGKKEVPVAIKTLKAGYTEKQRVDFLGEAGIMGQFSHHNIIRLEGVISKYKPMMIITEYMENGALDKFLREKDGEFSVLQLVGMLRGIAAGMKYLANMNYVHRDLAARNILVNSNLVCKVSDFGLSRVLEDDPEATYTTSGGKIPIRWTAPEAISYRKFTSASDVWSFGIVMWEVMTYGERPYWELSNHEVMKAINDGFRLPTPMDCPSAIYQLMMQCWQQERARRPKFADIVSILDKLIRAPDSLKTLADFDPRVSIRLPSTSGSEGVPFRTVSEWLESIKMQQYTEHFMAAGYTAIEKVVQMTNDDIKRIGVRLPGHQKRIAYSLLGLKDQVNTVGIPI
Description: (§4) In these experiments, apparent binding affinity of RYR IgG1 versus RYRgerm_102919_15 IgG1 on DU145 cells was evaluated. In these experiments, DU145 cells were incubated for 1 h at 25° C. with RYR or RYRgerm_102919_15 at a range of concentrations between 40 pM to 125 nM, washed, and binding detected with anti-human Alexa Fluor 647. MFI values were curve-fit to generate the apparent KD values.

[10] = molecular target: T4, ephrin type-A receptor 2 (EphA2) on …; test: flow cytometry on DU145 cells (apparent KD)
Description: as §4

Sequence of ephrin type-A receptor 2 (EphA2) on cells (human) (P29317 24-976): as above

“control C10/RYR bsIgG (bispecific antibody)” showed an ALCAM Internalization (% over ctrl, Mean, n = 2); HEK293-EphA2#2 cells [1] of 14.6 % over ctrl, an ALCAM Internalization (% over ctrl, Mean, n = 2); HEK293-EphA2#8 cells [1] of 0.5 % over ctrl and an ALCAM Internalization (% over ctrl, Mean, n = 2); HEK293-EphA2#31 cells [1] of 9.2 % over ctrl. It also gave an ALCAM Internalization (% over ctrl, Mean, n = 2); HEK293-EphA2#42 cells [1] of -16.5 % over ctrl, an ALCAM Internalization (% over ctrl, Mean, n = 2); HEK293-EphA2#C9 cells [1] of -9.6 % over ctrl and an ALCAM Internalization (% over ctrl, Mean, n = 2); HEK293-EphA2-0.02 cells [1] of 28.6 % over ctrl. It also gave an ALCAM Internalization (% over ctrl, Mean, n = 2); HEK293-EphA2-0.1 cells [1] of -22.4 % over ctrl, an ALCAM Internalization (% over ctrl, Mean, n = 2); HEK293-EphA2-0.5 cells [1] of -36.3 % over ctrl and an ALCAM Internalization (% over ctrl, Mean, n = 2); HEK293-EphA2-2.5 cells [1] of 7.1 % over ctrl. The ALCAM Internalization (% over ctrl, Mean, n = 2); HEK293-SiRNA2 cells [1] was -6 % over ctrl, the ALCAM Internalization (% over ctrl, Mean, n = 2); HEK293-siRNA1 cells [1] was -3.4 % over ctrl and the ALCAM Internalization (% over ctrl, Mean, n = 2); HEK293-siRNA3 cells [1] was -4.4 % over ctrl. For the same molecule, the ALCAM Internalization (% over ctrl, Mean, n = 2); HEK293 cells [1] was 10.8 % over ctrl and the surface EphA2 removed from pancreatic cancer cells (FACS) [2] was 85%.

B1: anti-ALCAM 3F1 IgG1 (antibody, V domains shown)
VH: EVQLVESGGGLVKPGGSLRLSCAASGFTLSDYSMNWVRQAPGKGLEWVASISSRSSYIYYADSVKGRFTISRDNAKNSLYLGMNSLRAEDTAVYYCTGGQGYSGYDGFQHWGQGTLVTVSS
VL: QSALTQPPSASGTPGQRVTISCSGSSSNIGSNSVSWYQQLPGTAPKLLIYSNTHRPSGVPDRFSGSKSGTSASLAISGLLSEDEADYYCASWDDSLNGGVFGGGTQLTVL
notes: also called anti-ALCAM mAb 3F1
With B1 the Kd [3] was 0.0206 nM and the “EC50 (read off the curve)” value [4] was roughly 0.02 nM.

B2: RYRgerm_102919_22 scFv (scFv)
scFv: EVQLVESGGGLVQPGGSLRLSCAASGFTFSSYSMNWVRQAPGKGLEWVSYISSSSSTIYYADSVKGRFTISRDNAKNSLYLQMNSLRAEDTAVYYCARYRLPNFWSGYPNYGMDVWGQGTTVTVSSGGGGSGGGGSGGGGSQSVLTQPPSVSGAPGQRVTISCTGSSSNIGAGYDVHWYQQLPGTAPKLLIYGNSNRPSGVPDRFSGSKSGTSASLAITGLQAEDEADYYCQSYDSSLSGHVVFGGGTKLTVL
In the case of B2, the Kd [5] is reported as 1.34 nM and the Kd [6] is reported as 28.1 nM.

B3: RYRgerm scFv (scFv)
chain: EVQLVESGGGLVQPGGSLRLSCAASGFTFSSYSMNWVRQAPGKGLEWVSYISSSSSTIYYADSVKGRFTISRDNAKNSLYLQMNSLRAEDTAVYYCARYRLPDFWSGYPNYGMDVWGQGTTVTVSSGGGGSGGGGSGGGGSQSVLTQPPSVSGAPGQRVTISCTGSSSNIGAGYDVHWYQQLPGTAPKLLIYGNSNRPSGVPDRFSGSKSGTSASLAITGLQAEDEADYYCQSYDSSLSGHVVFGGGTKLTVL
B3 showed a Kd [5] of 115 nM and a Kd [6] of 355 nM.

B4: RYRgerm_102919_15 scFv (scFv)
scFv: EVQLVESGGGLVQPGGSLRLSCAASGFTFSSYSMNWVRQAPGKGLEWVSYISSSSSTIYYADSVKGRFTISRDNAKNSLYLQMNSLRAEDTAVYYCARYRLPNFWSGYPNYGTDVWGQGTTVTVSSGGGGSGGGGSGGGGSQSVLTQPPSVSGAPGQRVTISCTGSSSNIGAGYDVHWYQQLPGTAPKLLIYGNSNRPSGVPDRFSGSKSGTSASLAITGLQAEDEADYYCQSYDSSLSGHVVFGGGTKLTVL
For B4, the “EC50 (read off the curve)” value [7] was roughly 5 nM, the Kd [5] was 2.01 nM and the Kd [6] was 5.58 nM.

B5: RYRgerm_102919_14 scFv (scFv)
scFv: EVQLVESGGGLVQPGGSLRLSCAASGFTSSSYSMNWVRQAPGKGLEWVSYISSSSSTIYYADSVKGRFTISRDNAKNSLYLQMNSLRAEDTAVYYCARYRLPNFWSGYPNYGMDVWGQGTTVTVSSGGGGSGGGGSGGGGSQSVLTQPPSVSGAPGQRVTISCTGSSSNIGAGYDVHWYQQLPGTAPKLLIYGNSNRPSGVPDRFSGSKSGTSASLAITGLQAEDEADYYCQSYDSSLSGHVVFGGGTKLTVL
notes: also called RYRgerm_102019_14
For B5, the Kd [5] was 2.12 nM and the Kd [6] was 21.3 nM.

B6: RYRgerm_102919_33 scFv (scFv)
scFv: EVQLVESGGGLVQPGGSLRLSCAASGFTFSSYSMNWVRQAPGKGLEWVSYISSSSSTIYYADSVKGRFTISRDNAKNSLYLQMNSLRAEDTAVYYCARYRFPDFWSGYPNYGMDVWGQGTTVTVSSGGGGSGGGGSGGGGSQSVLTQPPSVSGAPGQRVTISCTGSSSNIGAGYDVHWYQQLPGTAPKLLIYGNSNRPSGVPDRFSGSKSGTSASLAITGLQAEDEADYYCQSYDSSLSGHVVFGGGTKLTVL
For B6, the Kd [5] was 2.87 nM and the Kd [6] was 42.5 nM.

B7: RYR IgG1 (antibody, V domains shown)
VH: QVQLQESGGGLVQPGGSLRLSCAASGFTFSSYSMNWVRQAPGKGLEWVSYISSSSSTIYYADSVKGRFTISRDNAKNSLYLQMNSLRAEDTAVYYCARYRLPDFWSGYPNYGMDVWGQGTTVTVSS
VL: QSVLTQPPSVSGAPGQRVTISCTGSSSNIGAGYDVHWYQQLPGTAPKLLIYGNSNRPSGVPDRFSGSKSGTSASLAITGLQAEDEADYYCQSYDSSLSGHVVFGGGT
notes: Recombinant human IgG1 built from the original EphA2 scFv RYR; also called original RYR; HCA-F1
B7 gave a Kd [8] of roughly 28 nM, a koff [8] of 0.0145 s⁻¹ and a kon [8] of 518000 M⁻¹ s⁻¹. For the same molecule, the Kd [9] was 23.7 nM.

B8: RYRgerm_102919_15 IgG1 (antibody, V domains shown)
VH: EVQLVESGGGLVQPGGSLRLSCAASGFTFSSYSMNWVRQAPGKGLEWVSYISSSSSTIYYADSVKGRFTISRDNAKNSLYLQMNSLRAEDTAVYYCARYRLPNFWSGYPNYGTDVWGQGTTVTVSS
VL: QSVLTQPPSVSGAPGQRVTISCTGSSSNIGAGYDVHWYQQLPGTAPKLLIYGNSNRPSGVPDRFSGSKSGTSASLAITGLQAEDEADYYCQSYDSSLSGHVVFGGGTKLTVL
notes: Recombinant human IgG1 built from the scFv RYRgerm_102919_15
With B8 the Kd [8] was roughly 5 nM, the “fold increase in binding affinity against RYR IgG1” value [8] was roughly 5 fold and the koff [8] was 0.00132 s⁻¹. For the same molecule, the kon [8] was 262000 M⁻¹ s⁻¹, the “fold increase in binding affinity against RYR IgG1” value [10] was roughly 100 fold and the Kd [9] was 0.23 nM.
